In patent US11814663B2, “Microorganisms with improved 1,3-propanediol and butyric acid production” (METABOLIC EXPLORER, priority 2018, dated 2023):

Experiments:
Type in all cases: biochemical, Clostridium acetobutylicum ATCC824
[1] = substrate: OCC(O)CO; experiment: Glycerol kinase activity towards glycerol (ADP appearance coupled to NADH oxidation), wild type; details: other: GlpK wt, pH 9, 30° C., 2 mM ATP, 0.01-50 mM glycerol
Description: (§1) Three different point mutations were identified in glpK gene in the clone PD0557Vc05 leading to the mutant protein GlpK* with H22Y, A347T and V466M (table 2 above). In order to better characterize the effect of the mutations, we tested them individually or in combination. Therefore, the alleles coding for the mutated glycerol kinase were cloned into the expression plasmid pPAL7 (Biorad®) and the plasmids obtained were transformed into E. coli strain BL21(DE3) star to purify each mutated protein and perform biochemical experiments.
(§2) Cultures of the seven strains 1 to 7 for the overproduction of the proteins were realized in a 2 L Erlenmeyer flask, using LB broth (Bertani, 1951) that was supplemented with 5 g/L glucose and 100 mg/L of ampicillin. An overnight culture was used to inoculate a 500 mL culture to an OD600 nm of about 0.15. The culture was first kept on a shaker at 37° C. and 200 rpm until OD600 nm was about 0.5 and then the culture was moved on a second shaker at 25° C. and 200 rpm until OD600 nm was 0.6-0.8 (about one hour), before induction with 500 μM IPTG. The culture was kept at 25° C. and 200 rpm until OD600 nm was around 4, and then it was stopped. Cells were centrifuged at 7000 rpm, 5 minutes at 4° C., and then stored at −20° C. This protocol was the same for strains 1 to 7.
(§3) For each strain, about 250 mg of E. coli biomass was suspended in 40 ml of 100 mM potassium phosphate pH 7.6, and a protease inhibitor cocktail. The cells suspension (15 ml per conical tube) was sonicated on ice (Bandelin sonoplus, 70 w) in a 50 ml conical tube during 8 cycles of 30 sec with 30 sec intervals. After sonication, cells were incubated for 30 min at room temperature with 5 mM MgCl2 and 1 UI/ml of DNaseI. Cells debris were removed by centrifugation at 12000 g for 30 min at 4° C.
(§4) The proteins were purified from the crude cell-extract by affinity on a Profinity column (BIORAD, Bio-Scale Mini Profinity exact cartridge 5 ml) according to the protocol recommended by the manufacturer. The crude extract was loaded on a 5 ml Profinity exact cartridge equilibrated with 100 mM potassium phosphate pH 7.6. […] Protein concentration was measured using the Bradford protein assay.
(§5) Determination of kinetic parameters of GlpK wild type and mutants Glycerol kinase activity (GLPK) that catalyses the following reaction: Glycerol+ATP=>Glycerol-3-Phosphate+ADP, was determined by measuring the ADP appearance by enzymatic coupling to NADH oxidation. […] The oxidation of NADH was monitored at 30° C. by absorbance at 340 nm on a spectrophotometer (λ340=6290 M^−1 cm^−1).
(§6) One unit of enzyme activity was defined as the amount of enzyme catalyzing the decrease of 1 μmol of NADH per min. Kinetic parameters were determined with Sigmaplot by fitting to the Michaelis-Menten equation.

[2] = substrate: OCC(O)CO; experiment: Glycerol kinase activity towards glycerol (ADP appearance coupled to NADH oxidation), A347T; details: other: GlpK* A347T, pH 9, 30° C., 2 mM ATP, 0.01-50 mM glycerol
Description: as §1, §2, §3, §4, §5, §6

[3] = substrate: OCC(O)CO; experiment: Glycerol kinase activity towards glycerol (ADP appearance coupled to NADH oxidation), H22Y; details: other: GlpK* H22Y, pH 9, 30° C., 2 mM ATP, 0.01-50 mM glycerol
Description: as §1, §2, §3, §4, §5, §6

[4] = substrate: OCC(O)CO; experiment: Glycerol kinase activity towards glycerol (ADP appearance coupled to NADH oxidation), V466M; details: other: GlpK* V466M, pH 9, 30° C., 2 mM ATP, 0.01-50 mM glycerol
Description: as §1, §2, §3, §4, §5, §6

[5] = substrate: OCC(O)CO; experiment: Glycerol kinase activity towards glycerol (ADP appearance coupled to NADH oxidation), H22Y/A347T; details: other: GlpK* (H22Y/A347T), pH 9, 30° C., 2 mM ATP, 0.01-50 mM glycerol
Description: as §1, §2, §3, §4, §5, §6

[6] = substrate: OCC(O)CO; experiment: Glycerol kinase activity towards glycerol (ADP appearance coupled to NADH oxidation), A347T/V466M; details: other: GlpK* (A347T/V466M), pH 9, 30° C., 2 mM ATP, 0.01-50 mM glycerol
Description: as §1, §2, §3, §4, §5, §6

B1: Clostridium acetobutylicum glycerol kinase GlpK wt (glpK, CA_C1321, Uniprot Q97JG4), SEQ ID NO: 1 (Clostridium acetobutylicum ATCC 824) (protein)
chain: MKKYIIALDQGTTSSRAIIFDHEQNILEISQKEFTQIYPSKGWVEHNPLEIWSSQYGVLQEVMAKANITQENIAAIGITNQRETTIVWDKNTGEPVYNAIVWQCRRTADIVEGLKRDKEFSDYVKENTGLILDAYFSATKIKWILDNVEGAREKAEKGELLFGTVDTWLVWKLTNGKVHVTDYTNASRTMLYNIKELKWDERILRKLNIPRSMLPEVKNSSEVYGYTNLGGKGGIRVPIAGMAGDQQCALFGQTCFEEGSVKNTYGTGCFLLMNTGENIIQSKNGLVTTIAIGLEGKVQYALEGSVFVGGAVIQWIRDELKLVSDAADTEYFAKKVNDNGGVYVVPAFTGLGAPYWDMYARGAIFGLTRGANKNHIIRAALEAIAYQSRDLIDAMKEDSGCEITRIKVDGGASRNNLLMQFQADITGTEVVRPIITETTALGAAYLAGLAVGFWKSKEEIAEKWSVSEVYTPNLDEDEKIRLYNGWKRAVERVQGWEE
notes: GlpK wt; Q97JG4; made in house; host or cells: E. coli BL21(DE3) star
With B1 the Km [1] was 54 ± 1 µM, the Vmax [1] was 87734 ± 499 nmol/min/mg and the kcat [1] was 82.22 ± 0.467 s⁻¹. It also gave a kcat/Km [1] of 1.52e+06 ± 53000 M⁻¹ s⁻¹.

B2: Clostridium acetobutylicum glycerol kinase GlpK variant GlpK*(A347T), SEQ ID NO: 3 (Clostridium acetobutylicum ATCC 824; A347T) (protein)
chain: MKKYIIALDQGTTSSRAIIFDHEQNILEISQKEFTQIYPSKGWVEHNPLEIWSSQYGVLQEVMAKANITQENIAAIGITNQRETTIVWDKNTGEPVYNAIVWQCRRTADIVEGLKRDKEFSDYVKENTGLILDAYFSATKIKWILDNVEGAREKAEKGELLFGTVDTWLVWKLTNGKVHVTDYTNASRTMLYNIKELKWDERILRKLNIPRSMLPEVKNSSEVYGYTNLGGKGGIRVPIAGMAGDQQCALFGQTCFEEGSVKNTYGTGCFLLMNTGENIIQSKNGLVTTIAIGLEGKVQYALEGSVFVGGAVIQWIRDELKLVSDAADTEYFAKKVNDNGGVYVVPTFTGLGAPYWDMYARGAIFGLTRGANKNHIIRAALEAIAYQSRDLIDAMKEDSGCEITRIKVDGGASRNNLLMQFQADITGTEVVRPIITETTALGAAYLAGLAVGFWKSKEEIAEKWSVSEVYTPNLDEDEKIRLYNGWKRAVERVQGWEE
notes: GlpK*(A347T); made in house; host or cells: E. coli BL21(DE3) star
B2 gave a Km [2] of 260 ± 31 µM, a Vmax [2] of 6977 ± 155 nmol/min/mg and a kcat [2] of 6.538 ± 0.145 s⁻¹. It also gave a kcat/Km [2] of 24900 ± 3500 M⁻¹ s⁻¹.

B3: Clostridium acetobutylicum glycerol kinase GlpK variant GlpK*(H22Y), SEQ ID NO: 5 (Clostridium acetobutylicum ATCC 824; H22Y) (protein)
chain: MKKYIIALDQGTTSSRAIIFDYEQNILEISQKEFTQIYPSKGWVEHNPLEIWSSQYGVLQEVMAKANITQENIAAIGITNQRETTIVWDKNTGEPVYNAIVWQCRRTADIVEGLKRDKEFSDYVKENTGLILDAYFSATKIKWILDNVEGAREKAEKGELLFGTVDTWLVWKLTNGKVHVTDYTNASRTMLYNIKELKWDERILRKLNIPRSMLPEVKNSSEVYGYTNLGGKGGIRVPIAGMAGDQQCALFGQTCFEEGSVKNTYGTGCFLLMNTGENIIQSKNGLVTTIAIGLEGKVQYALEGSVFVGGAVIQWIRDELKLVSDAADTEYFAKKVNDNGGVYVVPAFTGLGAPYWDMYARGAIFGLTRGANKNHIIRAALEAIAYQSRDLIDAMKEDSGCEITRIKVDGGASRNNLLMQFQADITGTEVVRPIITETTALGAAYLAGLAVGFWKSKEEIAEKWSVSEVYTPNLDEDEKIRLYNGWKRAVERVQGWEE
notes: GlpK*(H22Y); made in house; host or cells: E. coli BL21(DE3) star
With B3 the Km [3] was 70 ± 4 µM, the Vmax [3] was 91725 ± 1186 nmol/min/mg and the kcat [3] was 85.97 ± 1.12 s⁻¹. It also gave a kcat/Km [3] of 1.229e+06 ± 93000 M⁻¹ s⁻¹.

B4: Clostridium acetobutylicum glycerol kinase GlpK variant GlpK*(V466M), SEQ ID NO: 7 (Clostridium acetobutylicum ATCC 824; V466M) (protein)
chain: MKKYIIALDQGTTSSRAIIFDHEQNILEISQKEFTQIYPSKGWVEHNPLEIWSSQYGVLQEVMAKANITQENIAAIGITNQRETTIVWDKNTGEPVYNAIVWQCRRTADIVEGLKRDKEFSDYVKENTGLILDAYFSATKIKWILDNVEGAREKAEKGELLFGTVDTWLVWKLTNGKVHVTDYTNASRTMLYNIKELKWDERILRKLNIPRSMLPEVKNSSEVYGYTNLGGKGGIRVPIAGMAGDQQCALFGQTCFEEGSVKNTYGTGCFLLMNTGENIIQSKNGLVTTIAIGLEGKVQYALEGSVFVGGAVIQWIRDELKLVSDAADTEYFAKKVNDNGGVYVVPAFTGLGAPYWDMYARGAIFGLTRGANKNHIIRAALEAIAYQSRDLIDAMKEDSGCEITRIKVDGGASRNNLLMQFQADITGTEVVRPIITETTALGAAYLAGLAVGFWKSKEEIAEKWSMSEVYTPNLDEDEKIRLYNGWKRAVERVQGWEE
notes: GlpK*(V466M); made in house; host or cells: E. coli BL21(DE3) star
B4 showed a Km [4] of 58 ± 3 µM, a Vmax [4] of 60399 ± 537 nmol/min/mg and a kcat [4] of 56.6 ± 0.5 s⁻¹. It also gave a kcat/Km [4] of 973000 ± 52000 M⁻¹ s⁻¹.

B5: Clostridium acetobutylicum glycerol kinase GlpK variant GlpK*(H22Y/A347T), SEQ ID NO: 9 (Clostridium acetobutylicum ATCC 824; A347T/H22Y) (protein)
chain: MKKYIIALDQGTTSSRAIIFDYEQNILEISQKEFTQIYPSKGWVEHNPLEIWSSQYGVLQEVMAKANITQENIAAIGITNQRETTIVWDKNTGEPVYNAIVWQCRRTADIVEGLKRDKEFSDYVKENTGLILDAYFSATKIKWILDNVEGAREKAEKGELLFGTVDTWLVWKLTNGKVHVTDYTNASRTMLYNIKELKWDERILRKLNIPRSMLPEVKNSSEVYGYTNLGGKGGIRVPIAGMAGDQQCALFGQTCFEEGSVKNTYGTGCFLLMNTGENIIQSKNGLVTTIAIGLEGKVQYALEGSVFVGGAVIQWIRDELKLVSDAADTEYFAKKVNDNGGVYVVPTFTGLGAPYWDMYARGAIFGLTRGANKNHIIRAALEAIAYQSRDLIDAMKEDSGCEITRIKVDGGASRNNLLMQFQADITGTEVVRPIITETTALGAAYLAGLAVGFWKSKEEIAEKWSVSEVYTPNLDEDEKIRLYNGWKRAVERVQGWEE
notes: GlpK*(H22Y/); made in house; host or cells: E. coli BL21(DE3) star
In the case of B5, the Km [5] is reported as 620 ± 50 µM, the Vmax [5] is reported as 9784 ± 195 nmol/min/mg and the kcat [5] is reported as 9.08 ± 0.183 s⁻¹. It also gave a kcat/Km [5] of 14700 ± 1500 M⁻¹ s⁻¹.

B6: Clostridium acetobutylicum glycerol kinase GlpK variant GlpK*(A347T/V466M), SEQ ID NO: 11 (Clostridium acetobutylicum ATCC 824; A347T/V466M) (protein)
chain: MKKYIIALDQGTTSSRAIIFDHEQNILEISQKEFTQIYPSKGWVEHNPLEIWSSQYGVLQEVMAKANITQENIAAIGITNQRETTIVWDKNTGEPVYNAIVWQCRRTADIVEGLKRDKEFSDYVKENTGLILDAYFSATKIKWILDNVEGAREKAEKGELLFGTVDTWLVWKLTNGKVHVTDYTNASRTMLYNIKELKWDERILRKLNIPRSMLPEVKNSSEVYGYTNLGGKGGIRVPIAGMAGDQQCALFGQTCFEEGSVKNTYGTGCFLLMNTGENIIQSKNGLVTTIAIGLEGKVQYALEGSVFVGGAVIQWIRDELKLVSDAADTEYFAKKVNDNGGVYVVPTFTGLGAPYWDMYARGAIFGLTRGANKNHIIRAALEAIAYQSRDLIDAMKEDSGCEITRIKVDGGASRNNLLMQFQADITGTEVVRPIITETTALGAAYLAGLAVGFWKSKEEIAEKWSMSEVYTPNLDEDEKIRLYNGWKRAVERVQGWEE
notes: GlpK*(A347T/); made in house; host or cells: E. coli BL21(DE3) star
With B6 the Km [6] was 480 ± 48 µM, the Vmax [6] was 6267 ± 175 nmol/min/mg and the kcat [6] was 5.873 ± 0.163 s⁻¹. For the same protein, the kcat/Km [6] was 12310 ± 1600 M⁻¹ s⁻¹.
